Data from PMC10757926, “Two birds with one stone: human SIRPα nanobodies for functional modulation and in vivo imaging of myeloid cells” (Frontiers in Immunology, 2023).

Assays:
[1] = target: T1, hSIRPα domain 1 displayed on U2OS cells (Homo sapiens, UniProt P78324); assay: immunostaining of cells or tissue; live-cell immunofluorescence on U2OS cells expressing the target; unlabeled Nbs (1 nM to 100 nM) with Cy5-labeled anti-VHH, 1 h at 37°C; conditions: one partner purified
T1 construct: signal-regulatory protein α (SIRPα), human, domain 1; also called hSIRPαD1; D1; source: U2OS, transiently expressing, on live cells
T1 sequence (P78324 whole entry, looked up, tested part not stated): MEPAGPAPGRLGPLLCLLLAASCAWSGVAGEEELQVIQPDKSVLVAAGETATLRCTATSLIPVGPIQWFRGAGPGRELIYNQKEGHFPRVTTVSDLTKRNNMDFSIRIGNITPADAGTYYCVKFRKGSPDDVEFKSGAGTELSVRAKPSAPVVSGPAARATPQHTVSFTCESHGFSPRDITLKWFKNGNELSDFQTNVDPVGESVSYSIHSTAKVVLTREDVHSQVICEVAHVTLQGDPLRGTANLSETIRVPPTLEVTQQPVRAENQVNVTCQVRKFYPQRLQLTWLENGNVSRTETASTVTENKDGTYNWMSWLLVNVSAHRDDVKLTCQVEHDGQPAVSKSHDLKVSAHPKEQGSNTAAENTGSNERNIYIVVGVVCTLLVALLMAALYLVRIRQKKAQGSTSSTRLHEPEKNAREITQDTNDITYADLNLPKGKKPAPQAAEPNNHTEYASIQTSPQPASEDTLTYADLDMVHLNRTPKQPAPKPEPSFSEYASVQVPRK

[2] = target: T2, hSIRPα domain 3 displayed on U2OS cells (Homo sapiens, UniProt P78324); assay: as above; conditions: one partner purified
T2 construct: signal-regulatory protein α (SIRPα), human, domain 3; also called hSIRPαD3; D3; source: U2OS, transiently expressing, on live cells
T2 sequence (P78324 whole entry, looked up, tested part not stated): as above

[3] = target: T3, full-length hSIRPα on U2OS cells (Homo sapiens, UniProt P78324); assay: as above; conditions: one partner purified
T3 construct: signal-regulatory protein α (SIRPα), human, full-length, co-expressed with IRES-derived GFP; also called U2OS-hSIRPα; source: U2OS, stably expressing, on live cells
T3 sequence (P78324 31-504): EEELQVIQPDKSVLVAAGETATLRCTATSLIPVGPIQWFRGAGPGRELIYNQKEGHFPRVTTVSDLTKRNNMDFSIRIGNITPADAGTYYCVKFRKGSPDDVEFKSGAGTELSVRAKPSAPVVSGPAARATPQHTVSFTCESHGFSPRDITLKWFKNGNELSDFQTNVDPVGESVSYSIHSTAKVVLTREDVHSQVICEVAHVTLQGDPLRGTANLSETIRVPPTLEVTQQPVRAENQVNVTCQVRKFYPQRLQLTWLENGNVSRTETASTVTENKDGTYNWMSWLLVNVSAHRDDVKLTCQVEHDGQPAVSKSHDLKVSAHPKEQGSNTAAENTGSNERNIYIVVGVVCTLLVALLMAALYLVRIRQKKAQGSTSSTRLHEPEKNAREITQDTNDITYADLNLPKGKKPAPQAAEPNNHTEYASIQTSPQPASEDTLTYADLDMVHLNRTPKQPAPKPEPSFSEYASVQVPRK

[4] = target: T4, hSIRPα domain 2 displayed on U2OS cells (Homo sapiens, UniProt P78324); assay: as above; conditions: one partner purified
T4 construct: signal-regulatory protein α (SIRPα), human, domain 2; also called hSIRPαD2; D2; source: U2OS, transiently expressing, on live cells
T4 sequence (P78324 whole entry, looked up, tested part not stated): as the sequence (P78324 whole entry, looked up, tested part not stated) above

[5] = target: T5, biotinylated recombinant hSIRPα (extracellular portion) (Homo sapiens, UniProt P78324, biotin (Sulfo-NHS-LC-LC-Biotin)); assay: BLI; epitope binning: two consecutive association steps with different Nbs on recombinant hSIRPα; conditions: both partners purified
T5 construct: signal-regulatory protein α (SIRPα), human, recombinant extracellular portion; also called biotinylated hSIRPα; signal-regulatory protein α; source: bought: Acrobiosystems
T5 sequence (P78324 31-373): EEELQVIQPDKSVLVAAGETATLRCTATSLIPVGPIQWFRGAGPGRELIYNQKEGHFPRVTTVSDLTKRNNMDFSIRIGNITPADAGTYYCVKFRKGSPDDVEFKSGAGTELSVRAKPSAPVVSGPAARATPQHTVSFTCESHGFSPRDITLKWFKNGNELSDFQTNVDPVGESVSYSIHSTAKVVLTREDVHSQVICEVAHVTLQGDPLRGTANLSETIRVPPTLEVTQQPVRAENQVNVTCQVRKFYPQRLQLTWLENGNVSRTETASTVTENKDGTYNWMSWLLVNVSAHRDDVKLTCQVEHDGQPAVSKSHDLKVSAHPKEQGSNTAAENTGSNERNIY

[6] = target: T6, hSIRPβ1 displayed on U2OS cells (Homo sapiens, UniProt O00241); assay: immunostaining of cells or tissue; live-cell immunofluorescence on U2OS cells expressing the target; unlabeled Nbs (1 nM to 100 nM) with Cy5-labeled anti-VHH, 1 h at 37°C; conditions: one partner purified
T6 construct: signal-regulatory protein β1 (SIRPβ1), human; source: U2OS, transiently expressing, on live cells
T6 sequence (O00241 30-398): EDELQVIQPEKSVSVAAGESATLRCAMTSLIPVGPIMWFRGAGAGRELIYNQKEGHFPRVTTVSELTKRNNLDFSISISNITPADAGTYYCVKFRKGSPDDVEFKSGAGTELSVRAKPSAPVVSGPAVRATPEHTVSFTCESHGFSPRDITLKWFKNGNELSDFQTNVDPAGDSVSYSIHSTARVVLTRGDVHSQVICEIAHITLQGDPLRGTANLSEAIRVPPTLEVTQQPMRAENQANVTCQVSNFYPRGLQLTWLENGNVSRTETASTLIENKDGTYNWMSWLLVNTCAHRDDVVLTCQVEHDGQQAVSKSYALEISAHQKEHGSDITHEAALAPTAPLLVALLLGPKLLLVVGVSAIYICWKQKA

[7] = target: T7, hSIRPγ displayed on U2OS cells (Homo sapiens, UniProt Q9P1W8); assay: as above; conditions: one partner purified
T7 construct: signal-regulatory protein γ (SIRPγ), human; also called hSIRPy; source: U2OS, transiently expressing, on live cells
T7 sequence (Q9P1W8 29-387): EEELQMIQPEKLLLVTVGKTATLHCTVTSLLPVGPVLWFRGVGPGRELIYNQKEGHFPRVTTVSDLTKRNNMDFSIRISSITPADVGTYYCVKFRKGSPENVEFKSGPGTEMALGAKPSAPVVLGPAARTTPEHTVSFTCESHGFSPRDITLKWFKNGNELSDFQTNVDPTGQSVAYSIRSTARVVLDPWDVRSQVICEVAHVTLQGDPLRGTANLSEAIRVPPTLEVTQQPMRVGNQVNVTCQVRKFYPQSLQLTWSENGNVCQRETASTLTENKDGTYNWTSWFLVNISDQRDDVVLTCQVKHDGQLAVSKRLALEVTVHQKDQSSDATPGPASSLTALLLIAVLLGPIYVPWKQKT

[8] = target: T8, murine SIRPα displayed on U2OS cells (Mus musculus, UniProt P97797); assay: as above; conditions: one partner purified
T8 construct: signal-regulatory protein α (SIRPα), mouse; also called mouse SIRPα; source: U2OS, transiently expressing, on live cells
T8 sequence (P97797 32-513): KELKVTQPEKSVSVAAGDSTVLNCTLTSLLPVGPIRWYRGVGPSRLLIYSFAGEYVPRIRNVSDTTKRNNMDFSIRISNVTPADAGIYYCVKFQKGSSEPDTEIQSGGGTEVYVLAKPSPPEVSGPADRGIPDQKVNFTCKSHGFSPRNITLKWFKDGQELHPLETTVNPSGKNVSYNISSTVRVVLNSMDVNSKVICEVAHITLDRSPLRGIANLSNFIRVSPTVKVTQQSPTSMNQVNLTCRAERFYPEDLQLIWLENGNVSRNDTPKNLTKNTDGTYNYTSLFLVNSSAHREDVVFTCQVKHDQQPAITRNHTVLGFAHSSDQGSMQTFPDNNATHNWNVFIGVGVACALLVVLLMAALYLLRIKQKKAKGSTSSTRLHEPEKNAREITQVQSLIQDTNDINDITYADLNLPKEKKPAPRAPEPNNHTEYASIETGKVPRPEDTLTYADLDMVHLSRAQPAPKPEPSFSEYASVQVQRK

[9] = target: T9, hSIRPα-V1 displayed on U2OS cells (Homo sapiens, allele V1, UniProt P78324); assay: as above; conditions: one partner purified
T9 construct: signal-regulatory protein α (SIRPα), human, allelic variant V1; also called hSIRPα variant V1; source: U2OS, transiently expressing, on live cells
T9 sequence (P78324 31-504): as the sequence (P78324 31-504) above

recombinant hSIRPα = target: T10, recombinant hSIRPα (human, UniProt P78324); assay: HDX-MS; hSIRPα with Nb S8, S33 or S36; methods not in the text shown; conditions: both partners purified
T10 construct: signal-regulatory protein α (SIRPα), human, recombinant extracellular portion; source: bought: Acrobiosystems
T10 sequence (P78324 31-373): as the sequence (P78324 31-373) above

[10] = target: T5, biotinylated recombinant hSIRPα …; assay: BLI; Octet RED96e; biotinylated hSIRPα (5 µg/mL) immobilised on streptavidin biosensors; Nbs 0.625 nM to 320 nM in Octet buffer (PBS, 0.1% BSA, 0.02% Tween-20); association 240 s, dissociation 720 s; 1:1 model, global fit; conditions: both partners purified

Binder	binding result [1]	binding result [2]	binding result [3]	binding result [4]	binding result [5]	binding result [6]	binding result [7]	binding result [8]	binding result [9]	binding result (recombinant hSIRPα)	binding result [10]
hSIRPα Nb S17 (VHH, selected against the entire extracellular portion of hSIRPα; source: E. coli XL-1, purified (IMAC, SEC); not shown: His tag (from the IMAC purification)) VHH: QVQLVESGGGLVQPGGSLRLSCAASGFTLDSYVIGWFRQAPGKEREGVSCISQRIGSTDYADSVKGRFTISKDNAKNTAYLQMNALKPEDTAVYYCAAGRLYYSGTYCPQGGMSYWGKGSPVTVSS	binds	no binding (tested: Nbs 1 nM to 100 nM)	binds	binds	–	–	–	–	–	–	–
hSIRPα Nb S44 (VHH, selected against domain 1 of hSIRPα; source: E. coli XL-1, purified (IMAC, SEC); not shown: His tag (from the IMAC purification)) VHH: QVQLQESGGGLVQPGGSLRLACAASGFTFSSYDMSWVRQAPGKGLEWVSDIKSGGGRTYYADSVKGRFTISRDNAKNTVYLQMNSLKPEDTAVYYCGSLDNSGAYTGGGQGSQVTVSS	binds	no binding (tested: Nbs 1 nM to 100 nM)	binds	–	binds	binds	binds	no binding (tested: Nbs 1 nM to 100 nM)	–	–	–
hSIRPα Nb S45 (VHH, selected against domain 1 of hSIRPα; source: E. coli XL-1, purified (IMAC, SEC); not shown: His tag (from the IMAC purification)) VHH: HVQLVESGGGLVQPGGSLRLSCAARGFSFRDSAMSWARQAPGKGLEWVGAIYSDGSTVYEKSVKGRFTISRDNAKNTMYLQMHSLKPEDSARYYCAPKGVVADEGDYSGQGTLVTVSS	binds	no binding (tested: Nbs 1 nM to 100 nM)	binds	–	binds	binds	no binding (tested: Nbs 1 nM to 100 nM)	no binding (tested: Nbs 1 nM to 100 nM)	binds	–	–
hSIRPα Nb S12 (VHH, selected against the entire extracellular portion of hSIRPα; source: E. coli XL-1, purified (IMAC, SEC); not shown: His tag (from the IMAC purification)) VHH: QVQLVESGGGLVQPGGSLRLSCLVSGFSSSYYAIGWFRQAPGKEREGVSCITRSGDTTNYADSVKGRFTISRDDARNTVYLQMNSLKTEDTAVYSCALWAWAGSGRLRCTASEYGHWGQGTQVTVSS	binds	no binding (tested: Nbs 1 nM to 100 nM)	binds	–	binds	binds	binds	no binding (tested: Nbs 1 nM to 100 nM)	–	–	–
hSIRPα Nb S8 (VHH, selected against the entire extracellular portion of hSIRPα; source: E. coli XL-1, purified (IMAC, SEC); not shown: His tag (from the IMAC purification)) VHH: QVQLVESGGGLVQPGGSLRLSCADSEFRLDEYATGWFRQAPGKEREGVACISRSGSNTKYTDSVKGRFTISRDNAKKTVYLQMNSLKPEDTAVYYCAADLTSHYLSCSSYTDYNSWGQGTQVTVSS	–	no binding (tested: Nbs 1 nM to 100 nM)	binds	binds	binds	binds	binds	no binding (tested: Nbs 1 nM to 100 nM)	binds	binds	–
hSIRPα-S36K>R Nb (VHH, as the VHH of m9 (S36); source: E. coli, purified) VHH: EVQLVESGGGLVQPGGSLRLSCAASGFTLDYYAIGWFRQVPGREREGVSCISSDGGGNTYYADSVRGRFTISRDNARNTVYLQMNSLRPEDSAVYSCAAGPTYYSGSYCRDPHSDYDYWGQGTQVTVSS	–	–	–	–	–	–	–	–	–	–	binds
hSIRPα Nb S33 (VHH, selected against the entire extracellular portion of hSIRPα; source: E. coli XL-1, purified (IMAC, SEC); not shown: His tag (from the IMAC purification)) VHH: EVQLVESGGGLVQPGGSLRLSCTTSGFTLDYYSVGWFRQAPGKEREGVSCITASGSSTNYANSVKGRFTISRDKVKNTVYLQMSSLKPEDTAVYYCAAEPCTVVAGILQAPTSDFGSWGQGTQVTVSS	–	no binding (tested: Nbs 1 nM to 100 nM)	binds	binds	binds	binds	–	no binding (tested: Nbs 1 nM to 100 nM)	binds	binds	–
hSIRPα Nb S29 (VHH, selected against the entire extracellular portion of hSIRPα; source: E. coli XL-1, purified (IMAC, SEC); not shown: His tag (from the IMAC purification)) VHH: EVQLVESGGGLVQPGGSLRLSCAASGFTSETYAIGWFRQAPGKEREGVSCISNDGGSRNYADSVKGRFTISRDNAKNTSYLQMNSLKPEDTAVYYCAAGKYYYCLGYVSDGMDYWGKGTPVTVSS	–	no binding (tested: Nbs 1 nM to 100 nM)	binds	binds	–	–	–	–	–	–	–
hSIRPα Nb S42 (VHH, selected against domain 1 of hSIRPα; source: E. coli XL-1, purified (IMAC, SEC); not shown: His tag (from the IMAC purification)) VHH: HVQLVESGGGLVQPGGSLRLSCAASGFIFSGYAMSWVRQAPGKGLEWVSDISSDGVRLYYADSVKGRFTISRDNAKNTVYLEMTSLKPDDTALYYCATSSDPQLGLDLWGKGTPVTVSS	binds	no binding (tested: Nbs 1 nM to 100 nM)	binds	–	–	–	–	–	–	–	–
hSIRPα Nb S7 (VHH, selected against the entire extracellular portion of hSIRPα; source: E. coli XL-1, purified (IMAC, SEC); not shown: His tag (from the IMAC purification)) VHH: HVQLVESGGGLVQVGDSLRLSCAPSGRTFRAYAMAWFRQAPGKEREFVAAIRWIGGTPSYKDSVKGRFTISRDNARNTFYLQMNSLEPQDTGVYYCAAEETQKGSGLGHDGRHYDYWGQGTPVTVSS	–	binds	binds	–	–	binds	–	no binding (tested: Nbs 1 nM to 100 nM)	binds	–	–
hSIRPα Nb S43 (VHH, selected against domain 1 of hSIRPα; source: E. coli XL-1, purified (IMAC, SEC); not shown: His tag (from the IMAC purification)) VHH: HVQLVESGGGLVQPGGSARLSCAASGFDLDYFAIGWFRQAPGKEREGVSCISTRSETTNYVDSVKGRFTISRDNAISTVYLQMNNLKPEDTAVYYCAADWADWTMTGCQMTWDDYNYWGQGAQVTVSS	binds	no binding (tested: Nbs 1 nM to 100 nM)	binds	–	–	–	–	–	–	–	–
hSIRPα Nb S21 (VHH, selected against the entire extracellular portion of hSIRPα; source: E. coli XL-1, purified (IMAC, SEC); not shown: His tag (from the IMAC purification)) VHH: DVQLVESGGGLVQPGGSLTLSCAASGFTSGTYALAYFRQAPGKEREGVSCISNDGGSRNYADSVKGRFTISRDNAKNTMYLQMNSLKPEDTAVYYCAAGPWYYCSDFARRPDGMDYWGKGTPVTVSS	–	no binding (tested: Nbs 1 nM to 100 nM)	binds	binds	–	–	–	–	–	–	–
hSIRPα Nb S14 (VHH, selected against the entire extracellular portion of hSIRPα; source: E. coli XL-1, purified (IMAC, SEC); not shown: His tag (from the IMAC purification)) VHH: EVQLVESGGGLVQPGGSLRLSCAASGFTANSYRMTWVRQAPGKGLEWVADIGTGNEWKYYPDSVKGRFTISRDAAKNTVYLQMNSLKPEDTAVYYCAKNGAVWYGEDGLDYWGKGTLVTVSS	binds	no binding (tested: Nbs 1 nM to 100 nM)	binds	binds	–	–	–	–	–	–	–
hSIRPα Nb S41 (VHH, selected against domain 1 of hSIRPα; source: E. coli XL-1, purified (IMAC, SEC); not shown: His tag (from the IMAC purification)) VHH: HVQLVESGGGLVQPGGSLRLSCAASGETLDYYAIGYVRQAPGKEREGVSCISSRGDNTNYADSVKGRFTISRDNANNTVYLQMNSLKPEDTAVYYCVAIKDSWQNYYCSVGWVEYDVWGQGTQVTVSS	binds	no binding (tested: Nbs 1 nM to 100 nM)	binds	–	binds	binds	–	no binding (tested: Nbs 1 nM to 100 nM)	–	–	–
